Patent US7119183

Molecular target: human CDw32 antigen (IgG Fc receptor) (human) (UniProt P12318)
Experiment: indirect immunofluorescence on CDw32-transfected COS cells

Sequence of UniProt P12318 (P12318 34-317 H167R limits assumed, form in doubt): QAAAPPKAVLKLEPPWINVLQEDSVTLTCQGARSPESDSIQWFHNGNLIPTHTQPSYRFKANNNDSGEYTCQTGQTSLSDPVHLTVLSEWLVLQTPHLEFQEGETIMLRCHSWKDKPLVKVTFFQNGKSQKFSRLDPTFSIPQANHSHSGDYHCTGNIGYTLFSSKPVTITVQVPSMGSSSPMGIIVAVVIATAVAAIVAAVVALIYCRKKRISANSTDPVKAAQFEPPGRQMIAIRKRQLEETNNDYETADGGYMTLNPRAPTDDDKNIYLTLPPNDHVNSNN

| Kd | Substance |
| --- | --- |
| 100 nM | human IgG (antibody) |
| 100 nM | mouse IgG (antibody) |
